Data as given in patent US20150018409A1, “CHIMERIC POLYPEPTIDES AND THEIR USE” (ADRIACELL S.P.A., priority 2003, published 2015).

What was measured:
[1] = tested on: MO59J (DNA-PKcs−/−) glioblastoma cells compared to MO59K; experiment: Colony forming assay with automatic analysis (VersaDoc); type: cell-based, human; design: dose or concentration left out as unconfirmed; details: single treatment for 12 hours
Excerpt: Statistical analysis of the results was done and is represented as a histogram. […] An example of the colony forming assay is shown. The assay was done employing various concentrations of cells in the order of three magnitudes (from the upper to the lower rows, 1×10^4, 2×10^3, 4×10^2, 8×10). On the right B), the histograms of the results from the colony forming assay of the cell-lines MO59J compared to MO59K is shown. The assays were done as in FIG. 9 but analysed with the aid of the Versadoc 4 (BioRad) system. […]

XR-1 (XRCC4−/−) cells = details: single addition of SCPVUTAT
Experimental: Clonogenic assay of CHO cells that were mutated for proteins involved in the NHEJ repair-pathway treated with […]. The cell lines used are AA8 (parental line), V3 (DNA-PCCS^(−/−)), xrss5 (KU80^(−/−)) and XR-1 (XRCC4^(−/−)), HIS P1.13-11 (KU70^(−/−)) and the corresponding parental cell line CHO-K1. Various dilutions of the CHO cells containing the NHEJ mutations as indicated were treated for 24 hours with […] (25 nM, grey bars; 100 nM, black bars) or not treated (white bars); the cells were washed and then grown for 7-10 days, stained with GIEMSA and colonies were counted.
These cell lines were analysed in the nuclease activity assays with […] in vivo and compared to the parental cell lines as indicated. […] Seven to ten days after addition, cell growth was analysed by staining with GIEMSA-blue and quantification of diverse cell-concentrations. […] In analogy, cell growth was quantified after a single treatment with […] for 12 hours (10 nM, grey bars; 75 nM, black bars; not treated, white bars). […] The multiwell-microtiter-plates (for an example see FIG. 13A) were scanned using the VersaDOC® (BioRad) imaging system and growth was automatically quantified with the software package Quantify One® for the analysis of the microtiter-plates (microtiter-plates scanning software).

[2] = tested on: AT-5 cells (mutated for ATM); experiment: FACS analysis of DNA content / cell cycle distribution; type: cell-based; details: incubation for 36 hours (25 nM, 100 nM)
Experimental: FIG. 8. Induction of Cell Cycle Block and Clonogenic Activity by […] of Cells Mutated for ATM (AT-5) in Comparison to Non Mutated Cells (MRC-5). • A) Distribution of DNA content distribution during the cell cycle detected by FACS analysis of AT-5 cells after 36 hours of […] treatment (25 nM, 100 nM), or with adriamycin (0.02 μg/ml; ADRIAMYCIN), or with SC34 (100 nM), and as control from non treated cells. The histograms represent DNA content relative to the cell-numbers; the panel on the right indicates the percentage of the corresponding distributions of the various cell cycle phases as calculated with the MODFIT™ program-package. • B) Colony forming assay with cell lines mutated for ATM and induced for DNA damage by […].
The cell cycle response to DSB's induced by […] treatment were analysed in p53 positive or negative cells. […] Incubation for 36 hours of the cell lines mutated for ATM (AT-5) with […] results in a transient retardation of the cell cycle, as was determined by a DNA content FACS analysis. […] A single addition of […] for 60 minutes to the AT-5 cells was sufficient to induce cell cycle stop after 24 hours (FIG. 8A) and finally leads to cell death, obtained from not correctly ligated DNA, and consequently, the clonogenic activity after a single treatment with […] for 60 minutes was below 0.02% for AT-5 cells. […]

[3] = tested on: HCT116 cells (hMLH1 mutated); experiment: Clonogenic assay of mismatch repair defective cells; type: cell-based, human; details: similar assays
Experimental: These cells were plated into multiwell-microtiter-plates at different concentrations and treated with [sequence] as indicated and stained with GIEMSA-blu. The multiwell-microtiter-plates (for an example see FIG. 13A) were scanned using the VersaDOC® (BioRad) imaging system and growth was automatically quantified with the software package Quantify One® for the analysis of the microtiter-plates (microtiter-plates scanning software).

U2OS cells = experiment: FACS analysis of DNA content / cell cycle distribution; type: cell-based, human; details: for cells in G2 phase: control 20%
Experimental: The distribution of the various phases of the cell cycle of the protein transduced cells was analysed by FACS analysis. Distribution of the DNA content of the cell populations was detected. 2n represents a diploid DNA equivalent (non replicated; G1 phase), 4n represents the tetraploid DNA equivalent (replicated; G2/M phase). For the FACS analysis the cells were separated employing the DDM mode that allows to estimate DNA content of a single cell. U2OS cells were grown for 24 hours (upper row) or 48 hours (lower row) in the presence of increasing amounts of […] (10 nM, 50 nM, 100 nM) as indicated and with only one addition of proteins; non treated cells (control); cells treated with a nuclease impaired derivative of […] (SC34, 100 nM). All the histograms shown represent a measure of DNA content relative to the cell numbers as indicated only on the upper right panel.
U2OS cells were incubated with […] (10 nM, panel B), or with H2O2 (10 μM, panelC), or both ([…], 10 nM; H2O2, 10 μM; panel D), or with no agent as a control (panel A). Further treatment cells were analysed in FACS for DNA content; the percentage of the various cell cycle phases are indicated at the bottoms of the individual histograms.
Finally, to confirm that the DSB's that are produced in vivo also induce perturbations in the cell cycle, DNA content in the various phases of the cell cycle was analysed by Fluorescence Activated Cell Sorting (FACS) after transduction of the proteins of the invention. After the treatment with diverse proteins at various concentrations and during different timepoints, the cells were fixed in 70% ethanol, treated with RNAse A and stained with propidium […].
The FACS analysis was done using a FACSCalibur™ (Becton Dickinson) apparatus. The obtained data were evaluated with the CellQuest™ software program package. At least 3×10^4 single events for every sample were analysed in the DDM mode. The statistic analysis of the DNA content distribution during the cell cycle was done with the MODFIT LT™ software program package. A 2N diploid DNA content correspond to cells in the G1 phase of the cell cycle, 4N represents a relative tetraploid DNA content and corresponds to G2 and/or M phase of the cell cycle. An intermediate DNA content represents S phase corresponding to a population actively replicating DNA during the cell cycle and a content that is below diploid 2N represents cells in apoptosis.
U2OS cells were incubated with 10 nM […] and with 10 μM H2O2 alone or in combination ant the cell cycle profile was analysed by FACS.

B1: SCPVUTAT: single chain PvuII endonuclease (aa 1-157, GSGG linker, aa 2-157) fused to HIV Tat peptide and six histidine tag; SEQ ID NO:2 (protein, listed as Proteus vulgaris)
chain: MSHPDLNKLLELWPHIQEYQDLALKHGINDIFQDNGGKLLQVLLITGLTVLPGREGNDAVDNAGQEYELKSINIDLTKGFSTHHHMNPVIIAKYRQVPWIFAIYRGIAIEAIYRLEPKDLEFYYDKWERKWYSDGHKDINNPKIPVKYVMEHGTKIYGSGGSHPDLNKLLELWPHIQEYQDLALKHGINDIFQDNGGKLLQVLLITGLTVLPGREGNDAVDNAGQEYELKSINIDLTKGFSTHHHMNPVIIAKYRQVPWIFAIYRGIAIEAIYRLEPKDLEFYYDKWERKWYSDGHKDINNPKIPVKYVMEHGTKIYGSYGRKKRRQRRRGGSHHHHHH
- sensitivity in colony forming assay versus parental MO59K [1]: significant differential increase in sensibility
- sensitivity in clonogenic assay (XR-1 (XRCC4−/−) cells): hypersensitive to blunt end DSB's
- change of cell cycle distribution (DNA content) [2]: strong increase in 4N G2 DNA content
- sensitivity in clonogenic assay [3]: do not show any increase in sensibility
- cells in G2 phase (U2OS cells; 10 nM SCPVUTAT alone): 28%
- cells in G2 phase (U2OS cells; 10 nM SCPVUTAT in combination with 10 μM H2O2): 45%
- change of cell cycle distribution (DNA content) (U2OS cells; 10 nM, incubation for 24 hours): increase in the teraploid population
